Data set [1] concerns the molecule itself. As to the kind of experiment: cryo-EM structure; apo SLC15A4 (twin Strep-tag) from HEK293F in LMNG/CHS micelles; 25 mM HEPES pH 7.4, 150 mM NaCl; monomeric and dimeric particles found, dimer solved at 2.93 Å.
Data set [2] deals with the molecule itself. The data set is described as follows: cryo-EM structure; SLC15A4-ALFA tag co-expressed with ALFA nanobody in HEK293F, complex purified (Strep-Tactin, SEC) in LMNG/CHS; monomeric and dimeric particles found, monomer solved at 3.25 Å.
Data set [3] deals with T1, human SLC15A4 with C-terminus flag-tag (co-expressed with TASL(1–20)-EGFP for cryo-EM) (human, UniProt Q8N697 1-577, N-glycosylation at N436).
T1 construct: human SLC15A4 (solute carrier family 15 member 4, PHT1), codon-optimized full-length cDNA, Uniprot Q8N697; pcDNA3.1 vector; residues 1–31 not visible in the map; also called PHT1; Solute carrier family 15 member 4; source: HEK293F, co-transfected with TASL(1–20)-EGFP, complex purified (Strep-Tactin, SEC) in LMNG/CHS; not shown: Flag, C-terminal, kept
As to the kind of experiment: cryo-EM structure; SLC15A4-Flag and TASL(1–20)-EGFP-twin Strep co-expressed in HEK293F, complex purified by Strep-Tactin and SEC; 25 mM HEPES pH 7.4, 150 mM NaCl, 0.003% LMNG, 0.0003% CHS; 10–15 mg/ml; 3.03 Å, no symmetry imposed. As to conditions: both partners purified.

T1 sequence (Q8N697 whole entry, the tested form may be a part): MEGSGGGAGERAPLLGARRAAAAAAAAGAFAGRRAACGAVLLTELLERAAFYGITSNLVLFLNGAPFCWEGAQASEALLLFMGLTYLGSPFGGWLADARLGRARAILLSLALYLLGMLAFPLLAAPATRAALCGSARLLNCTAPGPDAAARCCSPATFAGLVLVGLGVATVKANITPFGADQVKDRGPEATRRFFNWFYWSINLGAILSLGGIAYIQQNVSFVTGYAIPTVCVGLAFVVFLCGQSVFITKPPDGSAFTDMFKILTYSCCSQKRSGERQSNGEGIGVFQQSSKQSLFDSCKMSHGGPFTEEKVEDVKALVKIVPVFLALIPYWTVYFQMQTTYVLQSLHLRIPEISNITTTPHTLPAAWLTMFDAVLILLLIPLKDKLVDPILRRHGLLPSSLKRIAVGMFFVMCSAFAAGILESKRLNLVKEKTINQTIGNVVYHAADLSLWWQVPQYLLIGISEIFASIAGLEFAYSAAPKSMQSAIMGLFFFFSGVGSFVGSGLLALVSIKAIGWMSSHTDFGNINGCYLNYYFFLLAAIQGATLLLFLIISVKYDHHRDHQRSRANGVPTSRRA

B1: human full-length SLC15A4 with C-terminus tandem twin Strep-tag (natural protein)
chain: not shown
modifications: N-glycosylation at N436
notes: human SLC15A4 (solute carrier family 15 member 4, PHT1), codon-optimized full-length cDNA, Uniprot Q8N697; also called apo SLC15A4; C-terminal strep-tagged SLC15A4; source: HEK293F, transfected, purified (Strep-Tactin, SEC) in LMNG/CHS; also co-expressed in HEK293F with TASL(1–20&207–301)-Flag; not shown: twin Strep-tag, C-terminal, kept
Turning to B1, in data set [1], the “stoichiometry N” value was 2.

B2: human SLC15A4 with the 253–303 residues replaced by an ALFA tag (natural protein)
chain: not shown
modifications: N-glycosylation at N436
notes: human SLC15A4, Uniprot Q8N697, from the start to residue 252; ALFA tag, put in place of residues 253–303 (loop between TM6 and TM7); human SLC15A4, Uniprot Q8N697, from residue 304 to the end; The complex was purified on Strep-Tactin by a 'similar protocol'; also called ALFA tagged SLC15A4; SLC15A4-ALFA tag; source: HEK293F, co-transfected with ALFA nanobody, complex purified (Strep-Tactin, SEC) …
Take B2: in data set [2], the binding result is “binds”.

B3: TASL(1–20)-EGFP with C-terminus twin Strep-tag (domain or fragment, human, UniProt Q9HAI6 1-20, looked up)
chain: MLSEGYLSGLEYWNDIHWSC
notes: pCAG vector; also called CXorf21; source: HEK293F, co-transfected with SLC15A4-Flag, complex purified (Strep-Tactin, SEC) in LMNG/CHS; not shown: EGFP, C-terminal, kept; twin Strep-tag, C-terminal, kept
Regarding B3, the “stoichiometry N” value in data set [3] was 1.

What is called stoichiometry N is the number of molecules, sites or subunits per partner or assembly.

(Values after article PMC10589346, “Structural basis for recruitment of TASL by SLC15A4 in human endolysosomal TLR signaling” (Nature Communications, 2023).)
